The term EC50 denotes the concentration that produces a half-maximal response. As usually defined, the Kd is the free concentration of one partner at which half of the binding sites on the other are occupied at equilibrium, for simple one-to-one binding. As a reminder, the koff is the first-order rate constant of dissociation. Usually kon stands for the rate constant with which the complex forms.

From patent US20240082402A1 (ELPIS BIOPHARMACEUTICALS, published 2024) come the findings set out here.

Experiment [1] has as its target T1, HIS tagged human CD19 recombinant protein (human, UniProt P15391 20-291, limits assumed).
T1 construct: also called rhCD19; human CD19-HIS tagged protein; not shown: His tag
T1 sequence (looked up): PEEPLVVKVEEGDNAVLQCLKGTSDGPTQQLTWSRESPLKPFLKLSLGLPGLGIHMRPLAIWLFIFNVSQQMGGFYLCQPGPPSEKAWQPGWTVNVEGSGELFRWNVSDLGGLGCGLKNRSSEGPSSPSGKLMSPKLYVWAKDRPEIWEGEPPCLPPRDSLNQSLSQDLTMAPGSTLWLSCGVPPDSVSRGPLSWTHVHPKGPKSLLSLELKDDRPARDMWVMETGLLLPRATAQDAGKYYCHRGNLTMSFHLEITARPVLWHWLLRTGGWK
The experiment can be described thus: ELISA, His-tagged CD19 coated at 2 µg/mL, anti-hFc HRP detection. As to the method: (§1) Briefly, 384 well plate was immobilized with HIS tagged human CD19 or CD22 recombinant protein at final concentration of 2 μg/mL in 1×PBS in total volume of 25μL per well. The plate was incubated overnight at 4° C. followed by blocking with 80μL of superblock per well for 1 hour. […] CD19 or CD22 binding was detected by adding 25 μL of anti-hFc HRP diluted at 1:5000 in 1×PBST. In between each step, the plate was washed 3 times with 1×PBST in a plate washer. The plate was then developed with 20 μL of TMB substrate for 5 mins and stopped by adding 20 μL of 2 N sulfuric acid. The plate was read at OD450 nm (BIOTEK plate reader) and data plotted using GraphPad Prism® 8.1 software. […]

In experiment [2] the target is T1, HIS tagged human CD19 recombinant …. The experiment can be described thus: SPR Biacore T200, Fc fusion captured on Protein A chip, His-tagged CD19 as analyte. The method, then:
(§2) The assay was run using Biacore™ T200 control software version 2.0. For each cycle, 1 μg/mL of Fc-fusion protein was captured for 60 seconds at flow rate of 10 ul/min on flow cell 2 in 1×HBSP buffer on Protein A sensor chip. 2-fold serial human CD19 or CD22-HIS tagged protein was injected onto both reference flow cell 1 and Fc fusion protein captured flow cell 2 for 150 seconds at flow rate of 30 μl/mins followed by wash for 300 seconds. The flow cells were then regenerated with Glycine pH2 for 60 seconds at flow rate of 30 ul/mins. 8 concentration points from 100-0 nM was assayed per Fc fusion in a 96 well plate. The kinetics of Anti-CD19, CD22, CD22-CD19 binding to CD19 or CD22 protein was analyzed using Biacore™ T200 evaluation software version 3.0. The specific binding response unit was derived from subtraction of binding to reference flow cell-1 from Fc fusion protein captured flow cell-2.

Experiment [3] deals with T2, endogenous CD19 on Raji / Nalm6 cells (also on CD22 knock-out Raji cells) (human, UniProt P15391 20-556).
T2 construct: whole, on cells
T2 sequence (looked up): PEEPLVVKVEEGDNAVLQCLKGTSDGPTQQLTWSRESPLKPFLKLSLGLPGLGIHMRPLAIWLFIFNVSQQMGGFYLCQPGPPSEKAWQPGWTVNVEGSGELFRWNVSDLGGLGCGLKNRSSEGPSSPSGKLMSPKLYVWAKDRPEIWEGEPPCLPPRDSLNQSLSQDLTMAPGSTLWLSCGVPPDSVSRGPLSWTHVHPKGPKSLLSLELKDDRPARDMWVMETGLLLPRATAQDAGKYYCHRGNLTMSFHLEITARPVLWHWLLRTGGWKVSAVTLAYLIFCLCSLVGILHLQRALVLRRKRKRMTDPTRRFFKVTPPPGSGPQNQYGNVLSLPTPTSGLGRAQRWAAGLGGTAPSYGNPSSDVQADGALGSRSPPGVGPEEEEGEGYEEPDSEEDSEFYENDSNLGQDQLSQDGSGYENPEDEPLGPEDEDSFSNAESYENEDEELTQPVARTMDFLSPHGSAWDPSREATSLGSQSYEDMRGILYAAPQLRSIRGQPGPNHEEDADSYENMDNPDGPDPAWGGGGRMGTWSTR
Put plainly: FACS, scFv-Fc fusion on CD22 knock-out Raji cells (which keep CD19). In general terms: A flow cytometer gives signals particle by particle.

The target in experiment [4] is T3, HIS tagged human CD22 recombinant protein (human, UniProt P20273 20-687, limits assumed).
T3 construct: also called rhCD22; human CD22-HIS tagged protein; not shown: His tag
Put plainly: ELISA, His-tagged CD22 coated at 2 µg/mL, anti-hFc HRP detection. The method, then:
as §1
On the technique in general: In an ELISA, binding on a coated surface is turned into a signal by an enzyme label.

Experiment [5] deals with T3, HIS tagged human CD22 recombinant …. Put plainly: SPR Biacore T200, Fc fusion captured on Protein A chip, His-tagged CD22 as analyte. The method, then:
as §2
On the technique in general: Surface plasmon resonance follows binding to a sensor surface in real time, without labels.

In experiment [6] the target is T1, HIS tagged human CD19 recombinant …. Put plainly: ELISA, plate coated with His-tagged human CD19 at 2 ug/mL, anti-hFc HRP detection. The method, then: as §1
For experiment [7], the target named is HIS tagged human CD19 recombinant protein (human) (UniProt P15391). Put plainly: ELISA, His-tagged CD19 coated at 2 µg/mL, anti-hFc HRP detection.
Experiment [8] has as its target HIS tagged human CD22 recombinant protein (human) (UniProt P20273). Put plainly: ELISA, His-tagged CD22 coated at 2 µg/mL, anti-hFc HRP detection.
For experiment [9], the target named is HIS tagged human CD19 recombinant protein (human) (UniProt P15391). The experiment can be described thus: SPR Biacore T200, Fc fusion captured on Protein A chip, His-tagged CD19 as analyte.
Experiment [10] has as its target HIS tagged human CD22 recombinant protein (human) (UniProt P20273). Put plainly: SPR Biacore T200, Fc fusion captured on Protein A chip, His-tagged CD22 as analyte.
The target of experiment [11] is T4, full-length human CD19 on transfected K562 cells (human, UniProt P15391 20-556).
T4 construct: whole, on cells; K562 clone transfected with pCMV6-Entry; also called CD19 K562; CD19/K562; not shown: flag or Myc tag at the C-terminus
T4 sequence (looked up): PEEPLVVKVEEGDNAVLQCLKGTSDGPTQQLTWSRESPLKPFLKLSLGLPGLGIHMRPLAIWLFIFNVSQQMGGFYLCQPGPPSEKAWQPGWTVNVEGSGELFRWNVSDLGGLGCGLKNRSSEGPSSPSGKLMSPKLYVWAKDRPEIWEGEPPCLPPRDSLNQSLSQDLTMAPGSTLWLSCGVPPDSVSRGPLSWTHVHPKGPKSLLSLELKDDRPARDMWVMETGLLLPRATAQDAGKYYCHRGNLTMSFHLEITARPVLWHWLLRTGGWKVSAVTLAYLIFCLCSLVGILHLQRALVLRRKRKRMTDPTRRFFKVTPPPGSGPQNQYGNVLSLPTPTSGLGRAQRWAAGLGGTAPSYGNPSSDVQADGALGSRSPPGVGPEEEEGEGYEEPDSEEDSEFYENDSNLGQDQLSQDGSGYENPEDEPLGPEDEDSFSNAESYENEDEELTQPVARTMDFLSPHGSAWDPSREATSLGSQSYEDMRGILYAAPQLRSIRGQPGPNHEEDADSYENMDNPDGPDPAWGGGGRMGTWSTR
The experiment can be described thus: FACS, scFv at 200 nM on CD19 K562 cells, Alexa Fluor 647 anti-His detection, % positive cells. As to the method:
Cells were spun down at 1300 rpm for 5 minutes at 4° C. to remove unbound antibodies. Cells were then washed once with 200 iaL of PBS per well. […] Samples were then spun down at 1300 rpm for 5 minutes at 4° C. and washed twice with 200uL of 1×PBS per well. The resultant samples were reconstituted in 200 uL of 1×PBS and read on Attune™ NxT Flow Cytometer.

For experiment [12], the target named is T5, endogenous CD22 on Raji / Nalm6 cells (also on CD19 knock-out Raji cells) (human, UniProt P20273 20-847).
T5 construct: whole, on cells
The experiment can be described thus: FACS, scFv at 200 nM on Raji and Nalm6 cells, Alexa Fluor 647 anti-His detection, % positive cells.

B1: anti-CD19 scFv-Fc (Fc fusion, not shown: a dimerising Fc or GST)
chain: QVQLQQWGAGLLKPSETLSLTCAVYGGSFSGYYWTWIRQPPGKGLEWIGEINHGGSSNYNPSLKSRVTISVDTSKKQFSLNLNSVTAADTAVYYCARGLGYRSGWYEVENAFDIWGQGTMVTVSSGGGGSGGGGSGGGGSQPVLTQPPSVSVAPGQTARITCGGNKIESRSVHWYQQKPGQAPVLVVYDDGARPSGIPERLSGSNSGDTATLTISRVEPGDEADYYCQVWDGSSVIFGGGTKLTVL
notes: also called anti-CD19-Fc
B1: the EC50 in experiment [1] was 0.0094 nM. In experiment [2], the Kd is 3.75 nM, the koff was 0.000223 s⁻¹ and the kon turned out to be 59400 M⁻¹ s⁻¹.

B2: anti-CD22 scFv-Fc (Fc fusion, not shown: a dimerising Fc or GST)
chain: EVQLVQSGAEVKKPGASVKVSCKASGYTFTSYGISWVRQAPGQGLEWMGWISAYNGNTNYAQKLQGRVTMTTDTSTSTAYMELRSLRSDDTAVYYCARDYGDPSGDDYWGQGTLVTVSSGGGGSGGGGSGGGGSEIVLTQSPATLSVSPGEGVTLSCRASQSVSSNLAWYQQRPGQAPRLLIYGASIKATDVPDRFSGGGSGTDFTLSISNLQSEDFAVYYCQQYHTWPPVTFGGGTKVEIK
notes: also called Anti-CD22-Fc
In the case of B2, in [3], the binding result is reported as “no binding”. The EC50 in [4] came to 0.043 nM. In addition, in [5], the Kd stood at 1.44 nM, the koff was found to be 0.000177 s⁻¹ and the kon came to 122000 M⁻¹ s⁻¹. The binding result in [6] is on record as “no binding (tested: 25 nM)”.

B3: Anti-CD22scFv-CD19scFv-Fc (bispecific antibody, part only; not given: Fc and inter-scFv linker, not shown: a dimerising Fc or GST)
chain, part: EVQLVQSGAEVKKPGASVKVSCKASGYTFTSYGISWVRQAPGQGLEWMGWISAYNGNTNYAQKLQGRVTMTTDTSTSTAYMELRSLRSDDTAVYYCARDYGDPSGDDYWGQGTLVTVSSGGGGSGGGGSGGGGSEIVLTQSPATLSVSPGEGVTLSCRASQSVSSNLAWYQQRPGQAPRLLIYGASIKATDVPDRFSGGGSGTDFTLSISNLQSEDFAVYYCQQYHTWPPVTFGGGTKVEIKQVQLQQWGAGLLKPSETLSLTCAVYGGSFSGYYWTWIRQPPGKGLEWIGEINHGGSSNYNPSLKSRVTISVDTSKKQFSLNLNSVTAADTAVYYCARGLGYRSGWYEVENAFDIWGQGTMVTVSSGGGGSGGGGSGGGGSQPVLTQPPSVSVAPGQTARITCGGNKIESRSVHWYQQKPGQAPVLVVYDDGARPSGIPERLSGSNSGDTATLTISRVEPGDEADYYCQVWDGSSVIFGGGTKLTVL
For B3, the EC50 in experiment [7] came to 0.052 nM. Further, the EC50 in [8] was 0.189 nM. In [9], the Kd came out at 4.37 nM, the koff is 0.00025 s⁻¹ and the kon was 57200 M⁻¹ s⁻¹. In experiment [10], the Kd worked out at 3.37 nM, the koff amounted to 0.000266 s⁻¹ and the kon stood at 79000 M⁻¹ s⁻¹.

B4: EPC-001-2 (scFv)
scFv (VH-linker-VL): QVQLVQSGAEVKRPGASVKVSCKASGYTFTSYGISWVRQAPGQGLEWMGWISAYNGNTNYAQKLQGRVTMTTDTSTSTAYMELRSLRSDDTAVYYCARDPGIAVAGTVDYWGQGTLVTVSSGGGGSGGGGSGGGGSEIVMTQSPATLSVSPGEGVTLSCRASQSVSSNLAWYQQRPGQAPRLLIYGASIKATDVPDRFSGGGSGTDFTLSISNVQSEDFAVYYCQQYHTWTPVTFGGGTKVEIK
notes: also called anti-CD22 monospecific scFv; parental anti-CD22 scFv
Turning to B4, the results for the binding result in experiment [11] and in experiment [12] were “no binding (tested: 200 nM)” and “binds”, respectively.
